In US20240415974A1:

Experiments:
[1] = biological target: mannose 6-phosphate receptor (M6PR) on K-562 cells; assay: cell-based or functional assay
[2] = biological target: mannose 6-phosphate receptor (M6PR) on K-562 cells; assay: flow cytometry on K-562 cells expressing M6PR, detection with HSA-biotin and streptavidin-phycoerythrin
[3] = biological target: mannose 6-phosphate receptor (M6PR) on K-562 cells; assay: flow cytometry on K-562 cells expressing M6PR; reference T028100075-bis-M6P(1x)

internalization potency on K-562 cells, EC50 [M] (HSA-pHAb, flow cytometry) [1] | EC50 [2] [pM] | increase in specific cell binding against the molecule with a single bisM6P (DOL 1) (orders of magnitude) [3] | decrease in internalization potency on K-562 cells against the 3x bis-M6P conjugates [1] [fold] | Binder
3.86e-09 | 143 | > 2 | – | T028100069-bis-M6P(3x) (bispecific antibody, bisM6P-PEG4-maleimide conjugated to the thiols of the three engineered Cys of the ISVD-based building block (Kabat positions 43, 100f and 105 of SEQ ID NO.: 80); DOL by mass spec 2.90) DVQLVESGGGVVQPGGSLRLSCAASGFTFRSFGMSWVRQAPGKGPEWVSSISGSGSDTLYADSVKGRFTISRDNSKNTLYLQMNSLRPEDTALYYCTIGGSLSRSSQGTLVTVSSGGGGSGGGGSGGGGSEVQLVESGGGLVQAGGSLSISCAASGGSLSNYVLGWFRQAPGCEREFVAAINWRGDITIGPPNVEGRFTISRDNAKNTGYLQMNSLAPDDTAVYYCGAGTPLNPGAYIYCWSYDYWGCGTLVTVSS
2.88e-09 | 154 | > 2 | – | T028100070-bis-M6P(3x) (bispecific antibody, bisM6P-PEG4-maleimide conjugated to the thiols of the three engineered Cys of the ISVD-based building block (Kabat positions 43, 75 and 100a of SEQ ID NO.: 81); DOL by mass spec 2.84) DVQLVESGGGVVQPGGSLRLSCAASGFTFRSFGMSWVRQAPGKGPEWVSSISGSGSDTLYADSVKGRFTISRDNSKNTLYLQMNSLRPEDTALYYCTIGGSLSRSSQGTLVTVSSGGGGSGGGGSGGGGSEVQLVESGGGLVQAGGSLSISCAASGGSLSNYVLGWFRQAPGCEREFVAAINWRGDITIGPPNVEGRFTISRDNACNTGYLQMNSLAPDDTAVYYCGAGTPLNPCAYIYDWSYDYWGRGTLVTVSS
5.64e-08 | – | – | 20 | T028100075-bis-M6P(1x) (bispecific antibody, bisM6P-PEG4-maleimide conjugated to the thiol of the C-terminal Cys (-GGC) of the building block (SEQ ID NO.: 175); DOL by mass spec 1.00) DVQLVESGGGVVQPGGSLRLSCAASGFTFRSFGMSWVRQAPGKGPEWVSSISGSGSDTLYADSVKGRFTISRDNSKNTLYLQMNSLRPEDTALYYCTIGGSLSRSSQGTLVTVSSGGGGSGGGGSGGGGSEVQLVESGGGLVQAGGSLSISCAASGGSLSNYVLGWFRQAPGKEREFVAAINWRGDITIGPPNVEGRFTISRDNAKNTGYLQMNSLAPDDTAVYYCGAGTPLNPGAYIYDWSYDYWGRGTLVTVSSGGC
